No end group written: not given here.
Columns and labels:
[1] = target: T1, N1-CD33-His6 (the ectodomain of human CD33 fused to the N1 domain of the g3p filamentous phage M13) (filamentous phage M13; human, UniProt P20138 18-259); experiment: quality control ELISA on immobilized control protein
T1 construct: extracellular domain; Control protein of the QC ELISA, used for calculation of background; not shown: N1 domain of g3p of filamentous phage M13

[2] = target: T1, N1-CD33-His6 (the ectodomain of human …); experiment: as above; remark: listed apart in the source
[3] = target: T2, Ambra-1 peptide (synthesized peptide to which anti-Ambra-1 antibodies were raised) (human, also: conjugated to carrier protein (BSA), site not given here); experiment: quality control ELISA, chimeric human/mouse IgG1 on immobilized Amb1-TRF and Amb1-BSA (Ambra-1 peptide conjugates), signal over background
T2 construct: It was tested in native and denatured form; also called Ambra-1 antigen
T2 peptide: CGGSSRGDAAGPRGEPRNR

human Ambra-1 = target: T3, human Ambra-1 (human, UniProt Q9C0C7 1-1298); experiment: automated immunohistochemistry, DAB chromogen
T3 construct: Endogenous protein in formalin fixed paraffin embedded human skin and melanoma sections (immunohistochemistry)
T3 sequence: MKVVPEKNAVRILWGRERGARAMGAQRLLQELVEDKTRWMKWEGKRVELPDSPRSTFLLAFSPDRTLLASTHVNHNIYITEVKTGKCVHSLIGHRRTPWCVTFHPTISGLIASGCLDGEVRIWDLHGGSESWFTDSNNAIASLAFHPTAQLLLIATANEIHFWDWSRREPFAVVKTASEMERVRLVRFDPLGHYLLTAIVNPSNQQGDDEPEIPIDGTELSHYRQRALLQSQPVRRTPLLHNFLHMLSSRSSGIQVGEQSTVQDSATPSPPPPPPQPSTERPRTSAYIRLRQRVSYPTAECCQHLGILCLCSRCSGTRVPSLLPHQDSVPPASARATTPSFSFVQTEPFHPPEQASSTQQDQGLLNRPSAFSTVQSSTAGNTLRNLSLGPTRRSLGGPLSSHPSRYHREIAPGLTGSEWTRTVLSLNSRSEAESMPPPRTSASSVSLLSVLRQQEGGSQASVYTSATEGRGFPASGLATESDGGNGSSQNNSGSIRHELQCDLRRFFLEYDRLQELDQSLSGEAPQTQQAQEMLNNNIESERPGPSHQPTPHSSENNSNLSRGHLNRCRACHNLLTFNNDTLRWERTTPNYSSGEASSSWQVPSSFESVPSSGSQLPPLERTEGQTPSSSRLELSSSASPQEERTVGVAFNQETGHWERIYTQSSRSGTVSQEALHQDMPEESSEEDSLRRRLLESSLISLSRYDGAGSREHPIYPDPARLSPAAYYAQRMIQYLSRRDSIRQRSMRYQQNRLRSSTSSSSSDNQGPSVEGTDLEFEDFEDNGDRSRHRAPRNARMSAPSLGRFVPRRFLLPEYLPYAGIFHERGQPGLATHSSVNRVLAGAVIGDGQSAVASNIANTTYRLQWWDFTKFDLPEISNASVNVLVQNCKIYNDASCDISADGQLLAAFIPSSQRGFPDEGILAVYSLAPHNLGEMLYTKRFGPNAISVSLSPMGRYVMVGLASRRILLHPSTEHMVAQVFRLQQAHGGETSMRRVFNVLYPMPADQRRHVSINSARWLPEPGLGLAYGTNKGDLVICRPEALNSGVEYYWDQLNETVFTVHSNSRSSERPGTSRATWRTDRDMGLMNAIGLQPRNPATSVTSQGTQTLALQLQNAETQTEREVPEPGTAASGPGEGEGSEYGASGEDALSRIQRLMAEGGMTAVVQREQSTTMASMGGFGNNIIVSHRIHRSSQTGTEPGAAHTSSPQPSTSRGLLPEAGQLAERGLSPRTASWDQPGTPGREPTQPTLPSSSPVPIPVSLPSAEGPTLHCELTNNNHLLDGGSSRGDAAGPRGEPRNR

[4] = target: T1, N1-CD33-His6 (the ectodomain of human …); experiment: QC ELISA on immobilized control protein

T1 sequence (P20138 18-259, tags left off): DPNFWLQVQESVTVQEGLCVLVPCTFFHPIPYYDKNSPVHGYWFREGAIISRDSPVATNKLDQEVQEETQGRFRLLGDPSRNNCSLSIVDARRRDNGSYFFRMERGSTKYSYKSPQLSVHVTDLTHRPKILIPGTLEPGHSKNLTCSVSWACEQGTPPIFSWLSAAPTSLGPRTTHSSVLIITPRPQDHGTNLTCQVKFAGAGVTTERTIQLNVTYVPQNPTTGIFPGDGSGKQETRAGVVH

B1: full length chimeric antibody AbD33047 with an IgG1 mouse Fc region (antibody, V domains shown)
VH: QVQLVQSGAEVKKPGASVKVSCKASGYTFNDYYIHWVRQAPGQGLEWMGVISPNSGKTNYAQKFQGRVTMTRDTSISTAYMELSRLRSEDTAVYYCARDLYPDSSAFDIWGQGTLVTVSS
VL: DIELTQPPSVSVSPGQTASITCSGDNLGDKYAHWYQQKPGQAPVLVIYDDNERPSGIPERFSGSNSGNTATLTISGTQAEDEADYYCQSYDSGNRVFGGGTKLTVLG
notes: also called recombinant monoclonal antibody AbD33047; HuCAL antibody AbD33047
B1: no binding [1].

B2: full length chimeric antibody AbD33473 with an IgG1 mouse Fc region (antibody, V domains shown)
VH: EVQLVQSGAEVKKPGESLKISCKGSGYSFSSYWIHWVRQMPGKGLEWMGTIFPSRSYTTYSPSFQGQVTISADKSISTAYLQWSSLKASDTAMYYCARDTPSTALKSPFDYWGQGTLVTVSS
VL: DIVLTQPPSVSGAPGQRVTISCSGSSSNIGYNYVYWYQQLPGTAPKLLIYENNKRPSGVPDRFSGSKSGTSASLAITGLQAEDEADYYCSSWDSHSNSYVFGGGTKLTVLG
notes: also called recombinant monoclonal antibody AbD33473; HuCAL antibody AbD33473
B2: no binding [2]; binds [3]; binds (human Ambra-1).

B3: recombinant human HuCAL antibody fragment for Ambra-1 Abd33473.1 (Fab)
heavy: EVQLVQSGAEVKKPGESLKISCKGSGYSFSSYWIHWVRQMPGKGLEWMGTIFPSRSYTTYSPSFQGQVTISADKSISTAYLQWSSLKASDTAMYYCARDTPSTALKSPFDYWGQGTLVTVSSASTKGPSVFPLAPSSKSTSGGTAALGCLVKDYFPEPVTVSWNSGALTSGVHTFPAVLQSSGLYSLSSVVTVPSSSLGTQTYICNVNHKPSNTKVDKKVEPKSRTPEMPVLENRAAQGDITAPGGARRLTGDQTAALRDSLSDKPAKNIILLIGDGMGDSEITAARNYAEGAGGFFKGIDALPLTGQYTHYALNKKTGKPDYVTDSAASATAWSTGVKTYNGALGVDIHEKDHPTILEMAKAAGLATGNVSTAELQDATPAALVAHVTSRKCYGPSATSEKCPGNALEKGGKGSITEQLLNARADVTLGGGAKTFAETATAGEWQGKTLREQAQARGYQLVSDAASLNSVTEANQQKPLLGLFADGNMPVRWLGPKATYHGNIDKPAVTCTPNPQRNDSVPTLAQMTDKAIELLSKNEKGFFLQVEGASIDKQDHAANPCGQIGETVDLDEAVQRALEFAKKEGNTLVIVTADHAHASQIVAPDTKAPGLTQALNTKDGAVMVMSYGNSEEDSQEHTGSQLRIAAYGPHAANVVGLTDQTDLFYTMKAALGLKDYKDDDDKHHHHHH
light: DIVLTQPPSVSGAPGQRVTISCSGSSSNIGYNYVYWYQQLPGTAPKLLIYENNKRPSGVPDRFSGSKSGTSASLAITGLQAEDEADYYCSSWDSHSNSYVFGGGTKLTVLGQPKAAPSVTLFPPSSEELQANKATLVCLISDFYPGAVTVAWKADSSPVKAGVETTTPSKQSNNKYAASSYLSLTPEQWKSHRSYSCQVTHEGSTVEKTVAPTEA
notes: also called HuCAL antibody 33473
B3: no binding [4].

From patent US20210324059A1 (AMLO BIOSCIENCES, published 2021)
